According to patent publication US20250270327A1:
Where “and” joins values, the source holds several entries; their conditions need not be identical. Identical values can stand only once. Like-named read-outs stand apart in the source and are kept apart here.

Columns and labels:
[1] = target: HLA-E*01 on THP1 and U937 cells (human)
[2] = target: HLA-E*01 on THP1 and U937 cells (human); experiment: mass spectrometry of peptide recovered from immunopurified HLA-E, THP1 cells
[3] = target: HLA-E*01 on THP1 and U937 cells (human); experiment: mass spectrometry of peptide recovered from immunopurified HLA-E, U937 cells
[4] = target: HLA-A*02 on THP1 and U937 cells

Row | Binder | Peptide quantity (min. copies per cell) (copies per cell) [1] | Peptide quantity (min. copies per cell) (copies per cell) [2] | Peptide quantity (min. copies per cell) (copies per cell) [3] | Peptide quantity (min. copies per cell) (copies per cell) [4]
1 | RLPAKAPLL (modifications not checked) [peptide … from Mycobacterium tuberculosis enoyl-ACP reductase (inhA)] | 52 and 22 | – | – | –
2 | VMAPRTLVL (modifications not checked) [peptide … (from the HLA-A*02:01 gene)] | – | 155 | 586 | –
3 | VMAPRTLIL (modifications not checked) [peptide … (from the HLA-C*03:03 gene in THP1, the HLA-C*01:02 gene in U937)] | – | 70 | 877 | –
4 | VMAPRTLLL (modifications not checked) [peptide … (from the HLA-A*03:01 and HLA-A*31:01 genes)] | 302 | – | – | –
5 | VMAPRALLL (modifications not checked) [peptide … (from the HLA-C*07:01 gene)] | 35 | – | – | 0
